In patent publication US20080019962A1:
Numbering of substitutions follows the chain as printed. Values belong to the binder of their own block, whether it stands above or below them.

Legend:
[1] = biological target: protease domain of Endotheliase-2 (ET2) (human) (UniProt Q9BYE2); experiment: continuous in vitro enzyme assay, inhibition of ET2 protease activity by soluble Fab
[2] = biological target: protease domain of Endotheliase-2 (ET2) (human) (UniProt Q9BYE2); experiment: continuous in vitro enzyme assay on rET2, Fab
[3] = biological target: protease domain of Endotheliase-2 (ET2) (human) (UniProt Q9BYE2); experiment: continuous in vitro enzyme assay on rET2, IgG1

protease domain of Endotheliase-2 (ET2) (human), sequence (Q9BYE2 other isoform, or with tags, fused parts or gaps limits assumed): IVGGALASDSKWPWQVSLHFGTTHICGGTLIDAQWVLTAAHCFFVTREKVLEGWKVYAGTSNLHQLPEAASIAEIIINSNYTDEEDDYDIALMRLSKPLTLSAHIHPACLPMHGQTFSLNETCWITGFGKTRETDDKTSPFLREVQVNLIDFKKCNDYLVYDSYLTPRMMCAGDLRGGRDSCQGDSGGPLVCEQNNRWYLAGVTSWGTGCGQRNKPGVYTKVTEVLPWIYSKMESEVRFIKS

B2: D5 IgG1 antibody (Fab D5 reformatted) (antibody, V domains shown)
VH: EVQLLESGGGLVQPGGSLRLSCAASGFTFSRYDMHWVRQAPGKGLEWVSSISSSGGYTAYADSVKGRFTISRDNSKNTLYLQMNSLRAEDTAVYYCARGARGTSQGYWGQGTLVTVSS
VL: DIQMTQSPGTLSLSPGERGTLSCRASQFVSYSYLAWYQQKPGQAPRLLIYGASSRAKGIPDRFSGSGSGTDFTLTITRLEPEDFAVYYCQQYVPSVPWTFGQGTKVEVKR
Ki [3]: 0.086 nM

B4: C9 IgG1 antibody (Fab C9 reformatted) (antibody, V domains shown)
VH: EVQLLESGGGLVQPGGSLRLSCAASGFTFSRYPMFWVRQAPGKGLEWVSYISSSGGFTGYADSVKGRFTISRDNSKNTLYLQMNSLRAEDTAVYYCARGGPRGNKYYFDYWGQGTLVTVSS
VL: QSVLTQPASVSGSPGQSITISCTGTSSDVGHYNYVSWYQQHPGKAPKVMIYDVSSRPSGVSDRFSGSKSGNTASLAISGLQAEDEADYYCSSYTSGDTLYVFGTGTKVTVLG
Ki [3]: 0.11 nM

B5: Fab A2 (Fab, V domains shown)
VH: B4 VH with P33R, F35Y, Y50S, S53P, F57D, G59R, K76Q
VL: DIQMTQSPSFLSAFVGDRVTITCRASQDIRSDLAWYQQTPGKAPKLLIYAASTLKDGAPSRFSGSGSGTEFTLTISSLHPEDLATYYCQHLNGHPAFGPGTKVNIQR
Ki [1]: 0.16 nM
Ki [2]: 0.15 nM

The next lines start with the values.

Ki [1]: 0.07 nM
Ki [2]: 0.07 nM
B1: Fab D5 (Fab, V domains shown)
VH: B2 VH
VL: B2 VL

Ki [1]: 0.09 nM
Ki [2]: 0.095 nM
B3: Fab D2 (Fab, V domains shown)
VH: B4 VH with P33R, F35Y, Y50S, S53P, F57D, G59R, K76Q
VL: DIQMTQSPSSLSASVGDRVTITCRASQTIDNYLNWYQQKPGKAPKLVVYAASTLQTRVPSRFSGSGSGTDFTLTIDSLKPEDFATYFCQQGFSNPWTFGQGTTVAMIR

Ki [1]: 0.26 nM
Ki [2]: 0.31 nM
B6: Fab C9 (Fab, V domains shown)
VH: B4 VH
VL: B4 VL
